# Molecular target: BLM (Bloom's syndrome helicase), purified recombinant (human, UniProt P54132 1-1417)
# Experiment: far-Western, overlay or dot blot
# Chain of BLM (Bloom's syndrome helicase), purified recombinant (P54132 whole entry): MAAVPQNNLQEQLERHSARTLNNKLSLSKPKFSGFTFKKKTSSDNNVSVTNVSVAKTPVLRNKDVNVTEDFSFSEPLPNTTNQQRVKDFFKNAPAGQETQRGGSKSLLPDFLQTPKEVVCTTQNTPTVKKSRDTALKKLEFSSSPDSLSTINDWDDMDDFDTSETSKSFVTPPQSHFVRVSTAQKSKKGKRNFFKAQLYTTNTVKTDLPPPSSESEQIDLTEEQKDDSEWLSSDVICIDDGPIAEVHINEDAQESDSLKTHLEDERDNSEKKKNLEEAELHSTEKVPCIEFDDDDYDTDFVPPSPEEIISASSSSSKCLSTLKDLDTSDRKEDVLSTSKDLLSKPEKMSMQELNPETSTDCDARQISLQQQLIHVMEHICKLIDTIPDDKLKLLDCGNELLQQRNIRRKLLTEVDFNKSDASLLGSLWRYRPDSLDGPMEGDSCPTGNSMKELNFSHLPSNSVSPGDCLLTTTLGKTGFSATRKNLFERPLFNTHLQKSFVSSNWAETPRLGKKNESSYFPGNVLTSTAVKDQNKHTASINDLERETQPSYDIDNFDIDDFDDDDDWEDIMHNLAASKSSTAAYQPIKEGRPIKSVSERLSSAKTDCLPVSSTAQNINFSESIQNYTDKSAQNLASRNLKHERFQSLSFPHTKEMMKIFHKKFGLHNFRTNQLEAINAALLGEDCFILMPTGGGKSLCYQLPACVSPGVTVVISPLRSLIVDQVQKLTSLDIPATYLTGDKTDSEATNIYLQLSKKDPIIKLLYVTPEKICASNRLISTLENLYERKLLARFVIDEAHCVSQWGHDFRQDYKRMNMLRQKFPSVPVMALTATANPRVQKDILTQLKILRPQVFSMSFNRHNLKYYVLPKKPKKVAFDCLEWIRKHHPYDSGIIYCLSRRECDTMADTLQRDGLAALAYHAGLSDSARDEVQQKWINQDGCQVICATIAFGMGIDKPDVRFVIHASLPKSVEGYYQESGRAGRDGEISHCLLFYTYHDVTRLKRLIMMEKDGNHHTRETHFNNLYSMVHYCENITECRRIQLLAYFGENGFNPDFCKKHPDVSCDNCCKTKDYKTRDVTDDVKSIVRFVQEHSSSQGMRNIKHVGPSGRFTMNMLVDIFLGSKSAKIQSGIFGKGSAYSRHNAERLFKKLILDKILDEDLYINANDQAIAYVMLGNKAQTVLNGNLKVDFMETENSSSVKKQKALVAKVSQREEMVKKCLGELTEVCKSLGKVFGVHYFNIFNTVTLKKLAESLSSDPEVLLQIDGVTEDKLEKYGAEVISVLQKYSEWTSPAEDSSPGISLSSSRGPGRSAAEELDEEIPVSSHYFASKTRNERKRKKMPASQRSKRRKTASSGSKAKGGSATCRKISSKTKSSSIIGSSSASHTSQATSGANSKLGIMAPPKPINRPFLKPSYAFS
binder,measurement,value
"p12 subunit of the purified four-subunit hPOL δ enzyme (natural protein, human, UniProt Q9HCU8 1-107, looked up) MGRKRLITDSYPVVKRREGPAGHSKGELAPELGEEPQPRDEEEAELELLRQFDLAWQYGPCTGITRLQRWCRAKQMGLEPPPEVWQVLKTHPGDPRFQCSLWHLYPL",binding result,binds
"6xHis-p12 protein (p12, smallest subunit of human DNA polymerase δ), purified recombinant (natural protein, UniProt Q9HCU8 1-107, looked up) MGRKRLITDSYPVVKRREGPAGHSKGELAPELGEEPQPRDEEEAELELLRQFDLAWQYGPCTGITRLQRWCRAKQMGLEPPPEVWQVLKTHPGDPRFQCSLWHLYPL",binding result,binds

# Source: PMC2532730 (Nucleic Acids Research, 2008)
